Data taken from US20150344570A1 (published 2015).

T1: FcγRIIa R extracellular domain with C-terminal His tag (human, UniProt P12318 34-217)
T1 construct: extracellular domain; also called FcgRIIa R; 2aR; not shown: His tag at the C terminus
T1 sequence (looked up): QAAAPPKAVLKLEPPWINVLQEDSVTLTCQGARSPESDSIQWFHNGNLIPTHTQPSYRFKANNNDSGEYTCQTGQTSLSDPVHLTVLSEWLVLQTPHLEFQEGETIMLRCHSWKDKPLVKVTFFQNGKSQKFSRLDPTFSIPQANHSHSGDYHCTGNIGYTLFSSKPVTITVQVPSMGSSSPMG

T2: FcγRIIb extracellular domain with C-terminal His tag (human, UniProt P31994 43-217)
T2 construct: extracellular domain; also called FcgRIIb; 2b; not shown: His tag at the C terminus
T2 sequence (looked up): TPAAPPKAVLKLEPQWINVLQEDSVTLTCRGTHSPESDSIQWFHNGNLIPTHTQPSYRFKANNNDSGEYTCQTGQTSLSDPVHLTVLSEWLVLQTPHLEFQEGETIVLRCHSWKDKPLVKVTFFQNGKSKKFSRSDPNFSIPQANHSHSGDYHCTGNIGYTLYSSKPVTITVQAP

B1: GpH7-B3 variant P238_03V/GpL16-k0 (antibody, human IgG1, kappa)
heavy: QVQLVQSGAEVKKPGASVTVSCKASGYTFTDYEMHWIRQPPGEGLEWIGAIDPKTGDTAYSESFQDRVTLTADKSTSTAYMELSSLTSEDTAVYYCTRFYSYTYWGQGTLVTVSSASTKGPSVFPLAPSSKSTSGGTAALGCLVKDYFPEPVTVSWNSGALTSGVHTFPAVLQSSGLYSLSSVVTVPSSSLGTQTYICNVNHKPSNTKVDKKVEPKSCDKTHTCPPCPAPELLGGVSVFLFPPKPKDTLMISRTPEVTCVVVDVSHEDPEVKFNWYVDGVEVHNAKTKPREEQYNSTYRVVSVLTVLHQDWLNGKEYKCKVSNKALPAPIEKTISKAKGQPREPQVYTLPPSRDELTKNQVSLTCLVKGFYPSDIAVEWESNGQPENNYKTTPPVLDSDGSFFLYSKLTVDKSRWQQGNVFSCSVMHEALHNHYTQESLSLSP
light: DIVMTQSPLSLPVTPGEPASISCQASESLVHSNRNTYLHWYLQKPGQSPQLLIYKVSNRFSGVPDRFSGSGSGTDFTLKISRVEAEDVGVYYCSQNTHVPPTFGQGTKVEIERTVAAPSVFIFPPSDEQLKSGTASVVCLLNNFYPREAKVQWKVDNALQSGNSQESVTEQDSKDSTYSLSSTLTLSKADYEKHKVYACEVTHQGLSSPVTKSFNRGEC
notes: homodimerized: alteration in both H chains; also called Ho Ab P238_03V
B2: GpH7-A5/GpH7-B3 variant K334_05P/GpL16-k0 (antibody, human IgG1, kappa)
heavy 1: not shown
heavy 2: not shown
light: B1 light
notes: also called He Ab K334_05P
B3: GpH7-A5/GpH7-B3 variant K334_07I/GpL16-k0 (antibody, human IgG1, kappa)
heavy 1: not shown
heavy 2: not shown
light: B1 light
notes: also called He Ab K334_07I
B4: GpH7-A5/GpH7-B3 variant K334_08L/GpL16-k0 (antibody, human IgG1, kappa)
heavy 1: not shown
heavy 2: not shown
light: B1 light
notes: also called He Ab K334_08L
B5: GpH7-A5/GpH7-B3 variant K334_10E/GpL16-k0 (antibody, human IgG1, kappa)
heavy 1: not shown
heavy 2: not shown
light: B1 light
notes: also called He Ab K334_10E
B6: GpH7-A5/GpH7-B3 variant K334_13S/GpL16-k0 (antibody, human IgG1, kappa)
heavy 1: not shown
heavy 2: not shown
light: B1 light
notes: also called He Ab K334_13S
B7: GpH7-A5/GpH7-B3 variant K334_14T/GpL16-k0 (antibody, human IgG1, kappa)
heavy 1: not shown
heavy 2: not shown
light: B1 light
notes: also called He Ab K334_14T
B8: GpH7-A5/GpH7-B3 variant L235_20W/GpL16-k0 (antibody, human IgG1, kappa)
heavy 1: not shown
heavy 2: not shown
light: B1 light
notes: also called He Ab L235_20W
B9: GpH7-A5/GpH7-B3 variant L328_02A/GpL16-k0 (antibody, human IgG1, kappa)
heavy 1: not shown
heavy 2: not shown
light: B1 light
notes: also called He Ab L328_02A
B10: GpH7-A5/GpH7-B3 variant L328_13S/GpL16-k0 (antibody, human IgG1, kappa)
heavy 1: not shown
heavy 2: not shown
light: B1 light
notes: also called He Ab L328_13S
B11: GpH7-A5/GpH7-B3 variant P238_04F/GpL16-k0 (antibody, human IgG1, kappa)
heavy 1: not shown
heavy 2: not shown
light: B1 light
notes: also called He Ab P238_04F
B12: GpH7-A5/GpH7-B3 variant P238_09D/GpL16-k0 (antibody, human IgG1, kappa)
heavy 1: not shown
heavy 2: not shown
light: B1 light
notes: also called He Ab P238_09D
B13: GpH7-A5/GpH7-B3 variant P238_15Y/GpL16-k0 (antibody, human IgG1, kappa)
heavy 1: not shown
heavy 2: not shown
light: B1 light
notes: also called He Ab P238_15Y
B14: GpH7-A5/GpH7-B3 variant P331_15Y/GpL16-k0 (antibody, human IgG1, kappa)
heavy 1: not shown
heavy 2: not shown
light: B1 light
notes: also called He Ab P331_15Y
B15: GpH7-A5/GpH7-B3 variant P331_16H/GpL16-k0 (antibody, human IgG1, kappa)
heavy 1: not shown
heavy 2: not shown
light: B1 light
notes: also called He Ab P331_16H
B16: GpH7-A5/GpH7-B3 variant P331_20W/GpL16-k0 (antibody, human IgG1, kappa)
heavy 1: not shown
heavy 2: not shown
light: B1 light
notes: also called He Ab P331_20W
B17: GpH7-A5/GpH7-B3 variant S239_03V/GpL16-k0 (antibody, human IgG1, kappa)
heavy 1: not shown
heavy 2: not shown
light: B1 light
notes: also called He Ab S239_03V
B18: GpH7-A5/GpH7-B3 variant S239_10E/GpL16-k0 (antibody, human IgG1, kappa)
heavy 1: not shown
heavy 2: not shown
light: B1 light
notes: also called He Ab S239_10E
B19: GpH7-A5/GpH7-B3 variant S267_06M/GpL16-k0 (antibody, human IgG1, kappa)
heavy 1: not shown
heavy 2: not shown
light: B1 light
notes: also called He Ab S267_06M
B20: GpH7-A5/GpH7-B3 variant S267_19Q/GpL16-k0 (antibody, human IgG1, kappa)
heavy 1: not shown
heavy 2: not shown
light: B1 light
notes: also called He Ab S267_19Q
B21: GpH7-A5/GpH7-B3 variant S324_06M/GpL16-k0 (antibody, human IgG1, kappa)
heavy 1: not shown
heavy 2: not shown
light: B1 light
notes: also called He Ab S324_06M
B22: GpH7-A5/GpH7-B3 variant S337_16H/GpL16-k0 (antibody, human IgG1, kappa)
heavy 1: not shown
heavy 2: not shown
light: B1 light
notes: also called He Ab S337_16H
B23: GpH7-A5/GpH7-B3 variant T335_07I/GpL16-k0 (antibody, human IgG1, kappa)
heavy 1: not shown
heavy 2: not shown
light: B1 light
notes: also called He Ab T335_07I
B24: GpH7-A5/GpH7-B3 variant T335_10E/GpL16-k0 (antibody, human IgG1, kappa)
heavy 1: not shown
heavy 2: not shown
light: B1 light
notes: also called He Ab T335_10E
B25: GpH7-A5/GpH7-B3 variant T335_15Y/GpL16-k0 (antibody, human IgG1, kappa)
heavy 1: not shown
heavy 2: not shown
light: B1 light
notes: also called He Ab T335_15Y
B26: GpH7-A5/GpH7-B3 variant V266_06M/GpL16-k0 (antibody, human IgG1, kappa)
heavy 1: not shown
heavy 2: not shown
light: B1 light
notes: also called He Ab V266_06M
B27: GpH7-A5/GpH7-B3 variant Y296_20W/GpL16-k0 (antibody, human IgG1, kappa)
heavy 1: not shown
heavy 2: not shown
light: B1 light
notes: also called He Ab Y296_20W

These binders were tested against T1, FcγRIIa R extracellular domain with … (assay: SPR (Biacore), relative FcγRIIa R binding, GpH7-B3/GpL16-k0 = 100).
Protocol: (§1) Analysis of interaction between objective antibody and the FcγR was carried out using Biacore T100 (GE Healthcare). HBS-EP+ (GE Healthcare) was used as the running buffer, and the measurement temperature was set to 25° C. Chips produced by immobilizing the antigen peptide by the amine coupling method to a Series S Sencor Chip CM5 (GE Healthcare), or alternatively, chips produced by allowing preliminarily biotinylated antigen peptides to interact with and immobilize onto a Series S Sensor Chip SA (certified) (GE Healthcare) were used. Antibodies of interest were captured onto an antigen peptide-immobilized chip, and allowed to interact to each FcγR diluted with running buffer. To regenerate and repeatedly use the chip, the antibodies captured on the chip were washed off by reacting 10 mM glycine-HCl, pH 1.5.

Binder | Ho/Con_2aR
B1 | 116 % of control

The binders below were run against T2, FcγRIIb extracellular domain with … (assay: SPR, relative binding, HeCon Ab = 100).
Protocol: as §1

Binder | He/Con_2b
B2 | 105 % of control
B3 | 119 % of control
B4 | 106 % of control
B5 | 114 % of control
B6 | 111 % of control
B7 | 115 % of control
B8 | 147 % of control
B9 | 144 % of control
B10 | 149 % of control
B11 | 312 % of control
B12 | 221 % of control
B13 | 218 % of control
B14 | 114 % of control
B15 | 116 % of control
B16 | 111 % of control
B17 | 108 % of control
B18 | 181 % of control
B19 | 210 % of control
B20 | 218 % of control
B21 | 112 % of control
B22 | 105 % of control
B23 | 106 % of control
B24 | 108 % of control
B25 | 108 % of control
B26 | 251 % of control
B27 | 103 % of control
